Assay in all cases: purified protein
Assay type in all cases: biochemical, uncultured Acetothermia bacterium
What all share (conditions): standard reaction: 25 mM Tris-HCl pH 8, 0.05% Triton X-100, 50 °C

Substrate in series [1]: CCCCCCCCCC(=O)Oc1ccc([N+](=O)[O-])cc1
Substrate in series [2]: CCCCCCCC(=O)Oc1ccc([N+](=O)[O-])cc1
Substrate in series [3]: CCCC(=O)Oc1ccc([N+](=O)[O-])cc1
Substrate in series [4]: CC(=O)Oc1ccc([N+](=O)[O-])cc1

B1: EstDZ2 (uncultured Acetothermia bacterium) (protein)
chain: APPFSFQVYTDVVYYDGPDAHPTKHRLDLFVPDGLQDAPVLIFVHGGGWTSGDKNLYAFIGQAFAAQGFATAVINYRLSPQVQHPAHIEDVARAFSWVYKNIARYGGNPEKIFVTGHSAGGHLTALLALDEKYLQAHGLTLAAIKGAIPISGVYDVTPVLALYRTVFGADPDQRWDASPLAHVGPNKPPFLILYAQFDFPGLGLQAQQLFAELRTHNNEATLTEIPNRDHVTIVATIGASNDPTTEEI
notes: predicted signal peptide (aa 2-21) replaced by N-terminal hexa-histidine tag, kept; E. coli BL21(DE3); Ni-NTA; monomer, ~29 kDa; HGGG and GHSAG motifs; primer encodes APPFSF after His tag
Consider B1, for which the Km in the series “purified protein [1]” is 0.12 ± 0.01 mM; in the series “purified protein [2]” it was 0.20 ± 0.02 mM; in the series “purified protein [3]”, 0.32 ± 0.09 mM; in the series “purified protein [4]”, 0.67 ± 0.15 mM. Further, the kcat/Km worked out at 7.55e+06 M⁻¹ s⁻¹ in the series “purified protein [1]”, 1.04e+07 M⁻¹ s⁻¹ in “purified protein [2]”, 1.44e+07 M⁻¹ s⁻¹ in the series “purified protein [3]” and 1.76e+06 M⁻¹ s⁻¹ in “purified protein [4]”.

As a reminder, the Km is the concentration of substrate that gives half-maximal velocity. In general, kcat/Km refers to the turnover number divided by the Michaelis constant.

The values are drawn from publication PMC5171882, “Metagenomic mining for thermostable esterolytic enzymes uncovers a new family of bacterial esterases” (Scientific Reports, 2016).
